From US20100016275A1, “NOVEL COMPOUND 395” (priority 2008, published 2010)

Target: T1, human CXCR2 receptor (Homo sapiens, UniProt P25025)
T1 construct: expressed in transfected cells; host or cells: HEK293, stably transfected geneticin-resistant clones, vector RcCMV; membranes purified by sucrose gradient
T1 sequence (P25025 1-360): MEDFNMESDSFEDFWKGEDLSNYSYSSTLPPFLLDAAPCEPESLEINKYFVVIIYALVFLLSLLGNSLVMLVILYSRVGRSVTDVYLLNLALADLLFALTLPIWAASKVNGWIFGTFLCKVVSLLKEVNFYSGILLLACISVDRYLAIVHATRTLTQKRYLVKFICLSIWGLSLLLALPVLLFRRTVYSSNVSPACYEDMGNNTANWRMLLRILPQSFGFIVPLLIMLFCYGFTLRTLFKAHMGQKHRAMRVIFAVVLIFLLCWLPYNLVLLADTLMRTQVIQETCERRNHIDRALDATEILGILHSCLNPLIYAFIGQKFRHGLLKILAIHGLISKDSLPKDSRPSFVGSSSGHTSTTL
Experiment: Potency (pIC50) ligand binding assay, inhibition of [125I]IL-8 binding
Conditions: human CXCR2 membranes; read-out: Kd (equilibrium dissociation constant) determined for IL-8
Description: Potency (pIC50)—Ligand Binding Assay
The potency of antagonists at the human CXCR2 receptor was determined in vitro by quantifying their ability to inhibit specific binding of the CXCR2 radioligand, [^125I]interleukin-8 (IL-8), from membranes of HEK293 cells transfected with the human recombinant CXCR2 receptor.
Commercially sourced materials were obtained as follows: U-bottomed 96-well plates (3799) and 225 cm^2 vented cap culture flasks (3001) from Costar, Corning, Kent, UK. Multiscreen filter plates (0.45 μm; MAHV N45 50), vacuum manifold and pump (XF54 230 50) from Millipore, Watford, UK. N-[2-hydroxyethyl]piperazine-N′-[2ethanesulphonic acid] (HEPES; H-3375), ethylene diamine-tetraacetic acid (EDTA; E1644), magnesium chloride (M-9272), gelatin (G9382), dithiothreitol (DTT; D06052), sodium chloride (S3160/63), sodium hydroxide (B6506), bacitracin (B0125), inactivated foetal calf serum (FCS; CR0848) and DMSO Fluka Chemika (41648) from Sigma, Poole, UK. MicroScint-O (6013611) Packard BioScience, Pangboume, UK. Complete protease inhibitor cocktail tablets (1836145) from Boehringer s Mannheim, GmbH, Germany. Human recombinant [^125I]IL-8 74 TBq/mmol, 0.712 MBq/ml (IM249) from Amersham, Horsham UK. All other tissue culture reagents were purchased from Invitrogen, Paisley, Scotland, UK. All other chemical reagents were analytical grade from Fisher Scientific, Loughborough, UK
HEPES-buffered salt solution pH 7.4 containing HEPES (10 mM), potassium chloride (2.7 mM), sodium chloride (137 mM), potassium hydrogen phosphate (0.4 mM), calcium chloride (1.8 mM), magnesium chloride (1 mM), gelatin (0.1% (w/v)) and bacitracin (100 μg/ml).
HEPES-buffered Tyrode's solution pH 7.4 containing HEPES (10 mM), potassium chloride (2.7 mM), sodium chloride (137 mM), potassium hydrogen phosphate (0.4 mM), glucose (11 mM).
Hypotonic buffer: 3:1 mix of water: HEPES-buffered Tyrode's solution.
HEK293 cells were transfected with human CXCR2 (EMBL L19593) cDNA, previously cloned into the eukaryotic expression vector RcCMV. Cloned cell-lines were generated from stably-transfected geneticin-resistant populations. Cells were routinely grown to approximately 80% confluence in DMEM medium containing 10% (v/v) foetal calf serum and glutamine (2 mM) in a humidified incubator at 37° C., 5% CO2. Cells were harvested from flasks using Accutase™ at 37° C. for 3 to 5 minutes and resuspended on ice in hypotonic buffer at a density of 2×10^7 cells/mL. Membranes were prepared on ice by homogenisaton using a polytron tissue homogenizer set at 22000 rpm. The membrane fraction was purified by sucrose gradient centrifugation where homogenised cells were layered onto 41% (w/v) sucrose solution then centrifuged at 140000 g for 1 hour at 4° C. The membrane fraction was harvested at the interface, diluted 4-fold with HEPES-buffered Tyrode's solution and centrifuged at 100000 g for 20 minutes at 4° C. The membrane pellet was re-suspended at 1×10^8 cell equivalents/mL in HEPES-buffered Tyrode's solution and subsequently stored in aliquots at −80° C. All buffers used for membrane preparation and storage were made in the presence of 1 mM DTT and Complete Protease Inhibitor™ cocktail tablets, made up to manufacturers instructions.
Assays were performed in HEPES-buffered salt solution in 96-well plates. [^125I]IL-8 was used at a final concentration of 0.06 nM, pre-diluted from a 9.6 nM stock. The final DMSO concentration in the assay was 1% (v/v). Test compounds were prepared by serial dilution in DMSO followed by a ten-fold dilution into HEPES-buffered salt solution to give a working solution containing compound and 10% DMSO. The control for total binding (B0) of [^125I]IL-8 was determined in the absence of compound. The control for non-specific binding (NSB) was determined by measuring [^125I]IL-8 binding in the presence of (1R)-5-[[(3 -chloro-2-fluorophenyl)methyl]thio]-7-[[2-hydroxy-1-methylethyl]amino]thiazolo[4,5-d]pyrimidin-2(3H)-one dihydrate, sodium salt at 1 μM final concentration. […]

With “IL-8: interleukin-8, CXCR2 ligand, used as the human recombinant [125I] radioligand” the Kd was 1.2 nM.
